This test addresses T1, RBD from MERS-CoV (MERS-CoV, UniProt K9N5Q8 367-606).
T1 construct: domain: RBD
The test can be described thus: fluorescence response of the sensor (FIG. 12).

B1: VHH72 noK V104NBDxK (VHH72 noK V104K functionalized with NBDx-NHS at the V104K position) (VHH)
VHH: QVQLQESGGGLVQAGGSLRLSCAASGRTFSEYAMGWFRQAPGREREFVATISWSGGSTYYTDSVRGRFTISRDNARNTVYLQMNSLRPDDTAVYYCAAAGLGTKVSEWDYDYDYWGQGTQVTVSS
notes: also called nanoX; NanoX
Consider B1, for which the binding result is on record as “no binding”.

These data come from US20240201179A1 (Harvard, published 2024).
